Earlier results as cited in article PMC6525395.

Target: IL-6Rα (Homo sapiens) (UniProt P08887)
UniProt P08887, sequence (P08887 20-355): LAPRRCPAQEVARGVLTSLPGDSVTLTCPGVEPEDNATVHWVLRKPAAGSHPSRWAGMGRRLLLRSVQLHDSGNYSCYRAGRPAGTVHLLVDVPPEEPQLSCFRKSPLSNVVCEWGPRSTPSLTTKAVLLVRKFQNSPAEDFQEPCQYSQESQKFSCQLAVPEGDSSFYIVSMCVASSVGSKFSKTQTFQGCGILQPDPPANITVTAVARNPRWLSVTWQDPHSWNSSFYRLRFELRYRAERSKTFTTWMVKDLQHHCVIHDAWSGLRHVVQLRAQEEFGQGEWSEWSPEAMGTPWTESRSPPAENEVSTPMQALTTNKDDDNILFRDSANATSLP

- Kd: 0.5 nM
Substance: IL-6 (from UniProt P05231)
